Data taken from US20240166703A1, “ANTI-INFLAMMATORY PEPTIDE AND METHOD OF USE THEREOF” (The Regents of the University of California, priority 2021, published 2024).

Target: T1, polyubiquitin-dependent second interaction between NEMO and IKK2 (Homo sapiens, UniProt O14920)
T1 construct: proteins of HEK293T cells expressing full length human IKK2 were extracted; expressed in transfected cells; host or cells: HEK293T whole cell lysate supplied HA-IKK2; GST-NEMO 241-419 was expressed in E. coli Rosetta (DE3)
T1 sequence (O14920 1-756): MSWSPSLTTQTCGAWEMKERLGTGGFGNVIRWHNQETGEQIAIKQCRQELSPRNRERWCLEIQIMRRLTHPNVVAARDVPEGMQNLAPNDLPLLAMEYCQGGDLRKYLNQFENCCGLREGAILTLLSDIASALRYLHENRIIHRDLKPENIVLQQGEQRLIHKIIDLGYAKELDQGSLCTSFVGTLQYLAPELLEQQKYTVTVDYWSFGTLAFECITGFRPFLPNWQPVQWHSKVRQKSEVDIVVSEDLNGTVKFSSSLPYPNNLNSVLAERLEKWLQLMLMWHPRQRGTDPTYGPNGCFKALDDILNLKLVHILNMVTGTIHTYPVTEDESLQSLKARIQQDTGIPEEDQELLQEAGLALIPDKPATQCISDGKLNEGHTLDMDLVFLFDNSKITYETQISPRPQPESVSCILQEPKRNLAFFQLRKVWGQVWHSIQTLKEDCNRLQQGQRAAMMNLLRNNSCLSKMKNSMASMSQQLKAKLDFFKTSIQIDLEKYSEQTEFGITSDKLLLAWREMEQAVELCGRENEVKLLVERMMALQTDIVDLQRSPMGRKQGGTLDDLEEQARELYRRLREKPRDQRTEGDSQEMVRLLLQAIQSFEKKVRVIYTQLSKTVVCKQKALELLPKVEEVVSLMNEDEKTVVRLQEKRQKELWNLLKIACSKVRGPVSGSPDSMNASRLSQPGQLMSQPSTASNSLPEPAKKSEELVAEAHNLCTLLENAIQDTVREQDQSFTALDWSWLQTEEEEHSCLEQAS
Experiment: Peptide in vitro GST pull-down from HA-IKK2-transfected HEK293T whole cell lysates
Type: binding
Conditions: peptide 200-25 μM
Procedure: Proteins of HEK293T cells transfected with full length human IKK2 or mutants were extracted using RIPA buffer. After centrifugation at 16,000×g for 20 minutes, the supernatants were adjusted to the binding buffer (containing 1.5 mU Hexokinase) and incubated on a rotating platform for 1 hour at 4° C. These whole-cell extracts were then incubated with E. coli-expressed GST-fusion NEMO in the absence or presence of Ub4 on a rotating platform for 2 hours at 4° C. The beads were centrifuged at 1,000×g for 2 minutes and washed four times in binding buffer. Proteins bound to beads were resuspended in SDS loading buffer, resolved by SDS-PAGE, and analyzed by western blot.
For peptide in vitro pull-down assay, proteins of HEK293T cells expressing full length human IKK2 were extracted using the same lysis buffer described above. Whole cell lysates were mixed with E. coli-expressed GST-NEMO with or without NEMO^ActPep or mNEMO^ActPep at different concentrations in the absence of presence of Ub4 and incubated on a rotating platform for 2 hours at 4° C. The beads were then washed four times in the binding buffer. Proteins bound to beads were resuspended in SDS-PAGE loading buffer, separated by SDS-PAGE, and analyzed by western blot. […]

## TAT-NEMO^ActPep: HIV-1 TAT fused flexibly to human NEMO amino acids 375-391; cell permeable version of NEMO activation peptide (SEQ ID NO 2) (YGRKKRRQRRRGGLSSPLALPSQRRSPPEE)
  HA-IKK2 pulled down by GST-NEMO^241-419 in the presence of Ub4 (NEMO:IKK2 second interaction, western blot): loss of this interaction was observed with increasing concentrations
